The values that follow come from US20250243261A1 (CZ BIOHUB SF, published 2025).

This test addresses T1, full-length Ebola GP on pseudotyped lentivirus (Zaire ebolavirus, UniProt Q05320 33-676).
T1 sequence: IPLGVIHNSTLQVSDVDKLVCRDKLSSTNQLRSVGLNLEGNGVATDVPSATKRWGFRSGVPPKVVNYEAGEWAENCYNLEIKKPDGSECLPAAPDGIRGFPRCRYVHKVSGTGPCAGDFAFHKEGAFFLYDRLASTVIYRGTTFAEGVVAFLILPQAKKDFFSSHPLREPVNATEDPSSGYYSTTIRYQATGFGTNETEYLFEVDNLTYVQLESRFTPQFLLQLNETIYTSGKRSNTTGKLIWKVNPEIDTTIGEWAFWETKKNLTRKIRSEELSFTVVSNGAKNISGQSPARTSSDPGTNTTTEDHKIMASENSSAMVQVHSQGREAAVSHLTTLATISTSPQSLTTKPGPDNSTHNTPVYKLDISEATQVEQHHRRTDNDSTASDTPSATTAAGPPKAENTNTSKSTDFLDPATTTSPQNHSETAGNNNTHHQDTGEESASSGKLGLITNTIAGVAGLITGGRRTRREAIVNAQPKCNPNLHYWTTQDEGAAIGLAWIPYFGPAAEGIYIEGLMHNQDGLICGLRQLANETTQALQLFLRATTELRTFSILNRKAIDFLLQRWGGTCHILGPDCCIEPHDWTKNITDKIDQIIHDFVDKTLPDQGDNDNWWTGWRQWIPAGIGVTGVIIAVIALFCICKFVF
In words: cell-based or functional assay.

B1: mAb114 WT IgG (antibody, V domains shown)
VH: EVQLVESGGGLIQPGGSLRLSCAASGFALRMYDMHWVRQTIDKRLEWVSAVGPSGDTYYADSVKGRFAVSRENAKNSLSLQMNSLTAGDTAIYYCVRSDRGVAGLFDSWGQGILVTVSS
VL: DIQMTQSPSSLSASVGDRITITCRASQAFDNYVAWYQQRPGKVPKLLISAASALHAGVPSRFSGSGSGTHFTLTISSLQPEDVATYYCQNYNSAPLTFGGGTKVEIK
Regarding B1, the “Ebola GP pseudotyped lentivirus IC50” value was 1.43 nM.
